Laboratory results taken from article PMC6559208, “Phylogeny‐guided characterization of glycosyltransferases for epothilone glycosylation” (Microbial Biotechnology, 2019).

What was measured:
[1] = tested on: T1, BssGT; assay: UPLC-PDA glycosylation assay, Michaelis-Menten fit; assay type: biochemical, Bacillus inaquosorum; details: 10 mM UDP-glucose, 10 mM MgCl2, Tris-HCl pH 7.5, 37 °C, 10 min; read-out: Acceptor substrate (epothilone A) / K m
T1 construct: synthetic gene in pET28a, His tag, E. coli BL21(DE3), nickel-purified
Description: UPLC-PDA glycosylation assay, Michaelis-Menten fit on BssGT

[2] = biological target: T2, BsGT-2 (Bacillus subtilis, UniProt O05496); assay: LC-MS conversion assay; assay type: biochemical; details: assay mix 0.5 mM epothilone A, 3 mM UDP-glucose, 10 mM MgCl2, Tris-HCl, 400 μg/ml enzyme, no HPLC product peak, Km not determined
T2 construct: gene ydhE; synthetic gene in pET28a, His tag, E. coli BL21(DE3), nickel-purified

[3] = tested on: T3, BcGT-1; assay: UPLC-PDA glycosylation assay, Michaelis-Menten fit; assay type: biochemical, Bacillus cereus; details: 10 mM UDP-glucose, 10 mM MgCl2, Tris-HCl pH 7.5, 37 °C, 10 min; read-out: Acceptor substrate (epothilone A) / K m
T3 construct: synthetic gene in pET28a, His tag, E. coli BL21(DE3), nickel-purified
Description: UPLC-PDA glycosylation assay, Michaelis-Menten fit on BcGT-1

[4] = tested on: C/C(=C\c1csc(C)n1)[C@@H]1C[C@@H]2O[C@@H]2CCC[C@H](C)[C@H](O)[C@@H](C)C(=O)C(C)(C)[C@@H](O)CC(=O)O1; assay: UPLC-PDA glycosylation assay, Michaelis-Menten fit; assay type: biochemical, Bacillus atrophaeus; details: 10 mM UDP-glucose, 10 mM MgCl2, Tris-HCl pH 7.5, 37 °C, 10 min
Description: UPLC-PDA glycosylation assay, Michaelis-Menten fit on BaGT

[5] = tested on: C/C(=C\c1csc(C)n1)[C@@H]1C[C@@H]2O[C@@H]2CCC[C@H](C)[C@H](O)[C@@H](C)C(=O)C(C)(C)[C@@H](O)CC(=O)O1; assay: UPLC-PDA glycosylation assay, Michaelis-Menten fit; assay type: biochemical, Bacillus velezensis; details: 10 mM UDP-glucose, 10 mM MgCl2, Tris-HCl pH 7.5, 37 °C, 10 min
Description: UPLC-PDA glycosylation assay, Michaelis-Menten fit on BamGT

[6] = tested on: C/C(=C\c1csc(C)n1)[C@@H]1C[C@@H]2O[C@@H]2CCC[C@H](C)[C@H](O)[C@@H](C)C(=O)C(C)(C)[C@@H](O)CC(=O)O1; assay: UPLC-PDA glycosylation assay, Michaelis-Menten fit; assay type: biochemical, Bacillus licheniformis; details: 10 mM UDP-glucose, 10 mM MgCl2, Tris-HCl pH 7.5, 37 °C, 10 min
Description: UPLC-PDA glycosylation assay, Michaelis-Menten fit on YjiC

[7] = tested on: C/C(=C\c1csc(C)n1)[C@@H]1C[C@@H]2O[C@@H]2CCC[C@H](C)[C@H](O)[C@@H](C)C(=O)C(C)(C)[C@@H](O)CC(=O)O1; assay: UPLC-PDA glycosylation assay, Michaelis-Menten fit; assay type: biochemical, Bacillus subtilis; details: 10 mM UDP-glucose, 10 mM MgCl2, Tris-HCl pH 7.5, 37 °C, 10 min
Description: UPLC-PDA glycosylation assay, Michaelis-Menten fit on YojK

T2 sequence (O05496 whole entry): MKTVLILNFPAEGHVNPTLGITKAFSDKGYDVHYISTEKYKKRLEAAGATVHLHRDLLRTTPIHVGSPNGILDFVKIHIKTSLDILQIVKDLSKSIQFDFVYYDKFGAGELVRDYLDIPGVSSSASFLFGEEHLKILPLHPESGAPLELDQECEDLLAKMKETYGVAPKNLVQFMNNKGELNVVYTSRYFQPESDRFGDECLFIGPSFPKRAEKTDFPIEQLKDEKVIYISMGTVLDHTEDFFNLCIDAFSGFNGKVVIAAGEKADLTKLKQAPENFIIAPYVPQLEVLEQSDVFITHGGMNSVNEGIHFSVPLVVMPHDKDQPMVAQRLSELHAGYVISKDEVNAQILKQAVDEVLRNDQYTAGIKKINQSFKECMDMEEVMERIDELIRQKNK

C/C(=C\c1csc(C)n1)[C@@H]1C[C@@H]2O[C@@H]2CCC[C@H](C)[C@H](O)[C@@H](C)C(=O)C(C)(C)[C@@H](O)CC(=O)O1 [epothilone A]
Km [1]: 1590 ± 117 µM | % conversion after 10 h [2]: 0.03% | Km [3]: 1200 ± 215 µM

BaGT (Bacillus atrophaeus 1942)
Km [4]: 113.66 ± 10.55 µM | kcat [4]: 0.113 ± 0.00417 s⁻¹ | kcat/Km [4]: 990 M⁻¹ s⁻¹

BamGT (Bacillus velezensis FZB42)
Km [5]: 2245.74 ± 311.96 µM | kcat [5]: 0.0182 ± 0.00117 s⁻¹ | kcat/Km [5]: 8.33 M⁻¹ s⁻¹

YjiC (Bacillus licheniformis DSM 13 = ATCC 14580)
Km [6]: 94.58 ± 2.95 µM | kcat [6]: 0.192 ± 0.00317 s⁻¹ | kcat/Km [6]: 2030 M⁻¹ s⁻¹

YojK (Bacillus subtilis subsp. subtilis str. 168)
Km [7]: 1720.77 ± 161.35 µM | kcat [7]: 0.0205 ± 0.00117 s⁻¹ | kcat/Km [7]: 11.8 M⁻¹ s⁻¹
